In the supplement of paper PMC12764529:
± gives the half width of the 95% confidence interval.

Assays:
[1] = folding stability dG unfold (combined trypsin and chymotrypsin); higher = more stable
Method in brief: (§1)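 Designed mini-proteins (under 80 residues, no cysteine) in a PA-tagged cDNA display construct were digested with trypsin and chymotrypsin. Each protease was used at 11 concentrations (threefold dilutions) plus a no-protease condition, followed by sequencing. K50 was inferred by Bayesian fitting of sequencing counts, and unfolding free energy was derived against a sequence-predicted unfolded-state K50 and a shared folded-state K50, per protease or combined. Only designs with AlphaFold2 dimer inter-PAE above 15 were kept.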

[2] = folding stability dG unfold from chymotrypsin proteolysis; higher = more stable
Method in brief: as §1

[3] = folding stability dG unfold from trypsin proteolysis; higher = more stable
Method in brief: as §1

Sequence: SAGGSAGGSAGGMGPPPIETIVIEKPLSEEEYEALKKAYPDKKVTVSEIPGTPNKIATIESAGGSAGGSAGG [r17_254_JUSTAS]
- folding stability dG unfold [1]: 0.0243 ± 0.19 kcal/mol
- folding stability dG unfold [2]: -0.192 ± 0.098 kcal/mol
- folding stability dG unfold [3]: 0.363 ± 0.042 kcal/mol

Sequence: SAGGSAGGSAGGMIAVLTYKDGTVRDFGPTASLEEILSIPADEIVRIEVRPVLPELGDLLSAGGSAGGSAGG [r7_190_TrMRF]
- folding stability dG unfold [1]: 0.251 ± 0.07 kcal/mol
- folding stability dG unfold [2]: -0.859 ± 0.31 kcal/mol
- folding stability dG unfold [3]: 0.59 ± 0.018 kcal/mol

Sequence: SAGGSAGGSAGGMIIIIPTPKGTVALVIDENSDKPTLIEASPDEIPDLIEKGAKEVIILPSAGGSAGGSAGG [r7_266_TrMRF]
- folding stability dG unfold [1]: 0.932 ± 0.13 kcal/mol
- folding stability dG unfold [2]: 1.22 ± 0.052 kcal/mol
- folding stability dG unfold [3]: 0.363 ± 0.072 kcal/mol

Sequence: SAGGSAGGSAGGMIIKINGKYYKIKKIEKNPNGKYTITTENGKKYEFKNVKIFSEEELKSAGGSAGGSAGGS [r10_1151_TrROS_Hall]
- folding stability dG unfold [1]: 3.86 ± 0.18 kcal/mol
- folding stability dG unfold [2]: 4.19 ± 0.061 kcal/mol
- folding stability dG unfold [3]: 3.05 ± 0.18 kcal/mol

Sequence: SAGGSAGGSAGGMIKTKDGKVLEFKSLEEALAALKELGVDEVEIEELEPEGVVKVKVKPSAGGSAGGSAGGS [r10_1191_TrROS_Hall]
- folding stability dG unfold [1]: 1.11 ± 0.11 kcal/mol
- folding stability dG unfold [2]: 1.34 ± 0.039 kcal/mol
- folding stability dG unfold [3]: 0.301 ± 0.03 kcal/mol

Sequence: SAGGSAGGSAGGMIKVTFKIPGKNETIEIDFDSEEELEEKFKELREKLGYNIEVVEIEESAGGSAGGSAGGS [r10_1087_JUSTAS]
- folding stability dG unfold [1]: 1.92 ± 0.2 kcal/mol
- folding stability dG unfold [2]: 2.19 ± 0.12 kcal/mol
- folding stability dG unfold [3]: 2.19 ± 0.19 kcal/mol

Sequence: SAGGSAGGSAGGMILVQDKKTKKWYEIKPGESLENLEFPEGVKEVRIYVFNEDGELVELDSAGGSAGGSAGG [r7_763_TrROS_Hall]
- folding stability dG unfold [1]: 2.28 ± 0.12 kcal/mol
- folding stability dG unfold [2]: 2.45 ± 0.027 kcal/mol
- folding stability dG unfold [3]: 1.39 ± 0.043 kcal/mol

Sequence: SAGGSAGGSAGGMITTGITVSATDPNSSTSYTVTVPSSVPSSTFPANTAVGSAALAKLLASAGGSAGGSAGG [r17_412_JUSTAS]
- folding stability dG unfold [1]: -0.449 ± 0.21 kcal/mol
- folding stability dG unfold [2]: -0.225 ± 0.25 kcal/mol
- folding stability dG unfold [3]: -0.554 ± 0.19 kcal/mol

Sequence: SAGGSAGGSAGGMITVEVEVPGDEAEAEARREAIAEELAAEGHEDVPITVTFVSPEEAASAGGSAGGSAGGS [r10_1099_JUSTAS]
- folding stability dG unfold [1]: 0.64 ± 0.36 kcal/mol
- folding stability dG unfold [2]: 0.388 ± 0.047 kcal/mol
- folding stability dG unfold [3]: 1.28 ± 0.11 kcal/mol

Sequence: SAGGSAGGSAGGMIVIEVERKEGEEERKEVIVIPNDPEKAEAEAKKLAEEGPVEKVTIKKESAGGSAGGSAG [r3_310_JUSTAS]
- folding stability dG unfold [1]: 1.04 ± 0.28 kcal/mol
- folding stability dG unfold [2]: 1.3 ± 0.066 kcal/mol
- folding stability dG unfold [3]: 0.243 ± 0.11 kcal/mol

Sequence: SAGGSAGGSAGGMIVTLPKTGEVLLVPEEEIEAFLAALPESFPKEDVEVYEYSPEEEPLSAGGSAGGSAGGS [r10_13_JUSTAS]
- folding stability dG unfold [1]: 0.253 ± 0.13 kcal/mol
- folding stability dG unfold [2]: 0.0515 ± 0.17 kcal/mol
- folding stability dG unfold [3]: 0.566 ± 0.044 kcal/mol

Sequence: SAGGSAGGSAGGMKIIKLEDDYYLIPFDSPEQLKAYTDIFEKLGLPVVVLPDGRLLVKGSAGGSAGGSAGGS [r10_1027_TrMRF]
- folding stability dG unfold [1]: 2.49 ± 0.054 kcal/mol
- folding stability dG unfold [2]: 2.52 ± 0.026 kcal/mol
- folding stability dG unfold [3]: 2.39 ± 0.053 kcal/mol

Sequence: SAGGSAGGSAGGMKIPPSLLTEVKESIVPTPEGSTKITTVTAKVPGTGEVVTYTLTTPVASAGGSAGGSAGG [r7_348_JUSTAS]
- folding stability dG unfold [1]: -0.242 ± 0.11 kcal/mol
- folding stability dG unfold [2]: -0.744 ± 0.31 kcal/mol
- folding stability dG unfold [3]: 0.0354 ± 0.032 kcal/mol

Sequence: SAGGSAGGSAGGMKKKKLKEGVEIEFFREGDYLYVTTKIPETGKEETKKVKKVPKDIPLSAGGSAGGSAGGS [r10_240_JUSTAS]
- folding stability dG unfold [1]: 0.22 ± 0.23 kcal/mol
- folding stability dG unfold [2]: 0.298 ± 0.14 kcal/mol
- folding stability dG unfold [3]: -0.245 ± 0.45 kcal/mol

Sequence: SAGGSAGGSAGGMKLVITLKDPNSDKTYTVTLPIEDKSPEEVIQEIEEKLGVEVVEVKPESAGGSAGGSAGG [r7_590_JUSTAS]
- folding stability dG unfold [1]: 2.02 ± 0.06 kcal/mol
- folding stability dG unfold [2]: 2.04 ± 0.021 kcal/mol
- folding stability dG unfold [3]: 2.06 ± 0.083 kcal/mol

Sequence: SAGGSAGGSAGGMKPGEKPEVEYRVRIYDADTGEWREVPLEDLKKLKLPPGAVVEIEKVSAGGSAGGSAGGS [r10_1121_TrROS_Hall]
- folding stability dG unfold [1]: 2.93 ± 0.15 kcal/mol
- folding stability dG unfold [2]: 3.42 ± 0.067 kcal/mol
- folding stability dG unfold [3]: 2.01 ± 0.14 kcal/mol

Sequence: SAGGSAGGSAGGMKVIKLPGLTVEIEPGYSPSEPVKITITDPKTGKVTEYEIKIPPEELPSAGGSAGGSAGG [r7_834_JUSTAS]
- folding stability dG unfold [1]: 1.13 ± 0.042 kcal/mol
- folding stability dG unfold [2]: 1.26 ± 0.021 kcal/mol
- folding stability dG unfold [3]: 0.915 ± 0.052 kcal/mol

Sequence: SAGGSAGGSAGGMKVYRIGPDLYLVENEDGSLRIYNRDTGKVFTFKPGETITITIPPELLSAGGSAGGSAGG [r7_299_TrROS_Hall]
- folding stability dG unfold [1]: 2.7 ± 0.11 kcal/mol
- folding stability dG unfold [2]: 2.79 ± 0.059 kcal/mol
- folding stability dG unfold [3]: 2.18 ± 0.075 kcal/mol

Sequence: SAGGSAGGSAGGMLSTNVTRTITLTYFDPNGSKPIETQTVTVTTFVEIFQEPVGNWTAASAGGSAGGSAGGS [r10_50_JUSTAS]
- folding stability dG unfold [1]: 0.786 ± 0.15 kcal/mol
- folding stability dG unfold [2]: 0.759 ± 0.21 kcal/mol
- folding stability dG unfold [3]: 0.789 ± 0.08 kcal/mol

Sequence: SAGGSAGGSAGGMLTIVEVLSKDPEKPVYTVKVKFPDGSEKTLEVPPELLSNPEKEIVLESAGGSAGGSAGG [r7_117_JUSTAS]
- folding stability dG unfold [1]: 1.47 ± 0.12 kcal/mol
- folding stability dG unfold [2]: 1.44 ± 0.07 kcal/mol
- folding stability dG unfold [3]: 1.23 ± 0.072 kcal/mol

Sequence: SAGGSAGGSAGGMLVDPSTNTVTINLPPNTTLTFNYPDSTLTVTVPANETLTVTFPLTSSAGGSAGGSAGGS [r10_464_JUSTAS]
- folding stability dG unfold [1]: 1.67 ± 0.1 kcal/mol
- folding stability dG unfold [2]: 0.947 ± 0.049 kcal/mol
- folding stability dG unfold [3]: 2.19 ± 0.075 kcal/mol
